Consider two molecules from publication PMC10567711, “Structure-guided inhibition of the cancer DNA-mutating enzyme APOBEC3A”.

Data set [1] deals with T1, A3A-E72A (human, UniProt P31941 1-199, E72A). Kind of data set: X-ray crystallography; 1.91 A; Cl-; ITC: 50 mM Na+/K+ phosphate pH 6.0, 50 mM NaCl, 50 mM choline acetate, 2.5 mM TCEP, 200 uM EDTA, 30 mg/mL BSA, 25 C; NMR inhibition: 50 mM Na+/K+ phosphate pH 7.4, 100 mM NaCl, 1 mM TCEP, 100 uM DSS, 10% D2O, 20 C, 140 nM A3A. Particulars: protein: recombinant; hairpin, potential 6 bp stem, 4-nt loop ATTC.

The target in data set [2] is T1, A3A-E72A. Kind of data set: X-ray crystallography; Zn2+; 3.15 A; one copy threaded with GACC loop; ITC: 50 mM Na+/K+ phosphate pH 6.0, 50 mM NaCl, 50 mM choline acetate, 2.5 mM TCEP, 200 uM EDTA, 30 mg/mL BSA, 25 C; NMR inhibition: 50 mM Na+/K+ phosphate pH 7.4, 100 mM NaCl, 1 mM TCEP, 100 uM DSS, 10% D2O, 20 C, 140 nM A3A. The settings on record: protein: recombinant; hairpin, 4 bp stem incl. one AT pair, 4-nt loop CTTC.

T1 sequence (P31941 whole entry E72A): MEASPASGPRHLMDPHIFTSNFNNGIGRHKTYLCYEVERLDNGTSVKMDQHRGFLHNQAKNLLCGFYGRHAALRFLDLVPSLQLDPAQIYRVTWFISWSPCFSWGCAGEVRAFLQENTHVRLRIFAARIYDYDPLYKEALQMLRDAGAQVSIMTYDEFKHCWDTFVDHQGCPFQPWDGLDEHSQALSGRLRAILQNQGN

Consider CCCATCATTCGATGGG (structured_DNA) [ATTC-hairpin], for which the binding result in data set [1] was “binds”.
As to GCCACCTTCGTGGG (structured_DNA) [CTTC-hairpin], in data set [2], the binding result is “binds”.
